The target of the assay is TLR4 extracellular domain 24-631 (Homo sapiens, UniProt O00206). Nature of the assay: solid phase binding assay.
TLR4 extracellular domain 24-631, sequence (O00206 24-631): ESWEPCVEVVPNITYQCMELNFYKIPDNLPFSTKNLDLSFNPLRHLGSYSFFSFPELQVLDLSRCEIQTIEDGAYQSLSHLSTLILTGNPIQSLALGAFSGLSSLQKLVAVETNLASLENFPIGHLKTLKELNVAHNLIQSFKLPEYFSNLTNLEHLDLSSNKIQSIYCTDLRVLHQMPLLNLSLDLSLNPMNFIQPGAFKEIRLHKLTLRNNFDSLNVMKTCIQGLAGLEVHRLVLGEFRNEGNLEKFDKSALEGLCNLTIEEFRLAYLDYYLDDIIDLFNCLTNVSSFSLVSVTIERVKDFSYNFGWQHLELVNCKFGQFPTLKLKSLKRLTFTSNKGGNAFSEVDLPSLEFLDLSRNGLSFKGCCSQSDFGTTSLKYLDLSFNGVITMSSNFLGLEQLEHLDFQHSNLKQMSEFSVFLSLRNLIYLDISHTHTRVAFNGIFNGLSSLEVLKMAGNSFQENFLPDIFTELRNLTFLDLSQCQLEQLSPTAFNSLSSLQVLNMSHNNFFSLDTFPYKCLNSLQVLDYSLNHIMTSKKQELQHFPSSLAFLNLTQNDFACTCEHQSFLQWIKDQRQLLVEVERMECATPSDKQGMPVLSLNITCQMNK

B1: Tenascin-R FBG domain (FBG-R) 1128-1359 (protein)
chain: GGRVFPHPQDCAQHLMNGDTLSGVYPIFLNGELSQKLQVYCDMTTDGGGWIVFQRRQNGQTDFFRKWADYRVGFGNVEDEFWLGLDNIHRITSQGRYELRVDMRDGQEAAFASYDRFSVEDSRNLYKLRIGSYNGTAGDSLSYHQGRPFSTEDRDNDVAVTNCAMSYKGAWWYKNCHRTNLNGKYGESRHSQGINWYHWKGHEFSIPFVEMKMRPYNHRLMAGRKRQSLQF
In the case of B1, the Kd was ~55 nM.

B2: Tenascin-W FBG domain (FBG-W) 1060-1300 (protein)
chain: VGARFPHPSDCSQVQQNSNAASGLYTIYLHGDASRPLQVYCDMETDGGGWIVFQRRNTGQLDFFKRWRSYVEGFGDPMKEFWLGLDKLHNLTTGTPARYEVRVDLQTANESAYAIYDFFQVASSKERYKLTVGKYRGTAGDALTYHNGWKFTTFDRDNDIALSNCALTHHGGWWYKNCHLANPNGRYGETKHSEGVNWEPWKGHEFSIPYVELKIRPHGYSREPVLGRKKRTLRGRLRTF
In the case of B2, the Kd is ~55 nM.

The Kd is the constant that tells how readily two partners part at equilibrium. A lower Kd goes with higher affinity.
